In patent publication US20230102344A1 (published 2023):

How the values were obtained:
[1] = target: T1, TCRvβ 6-5 expressed on cells (TCRvβ 6-5+ Jurkat cells; human T cells) (human); experiment: cell binding
T1 chain: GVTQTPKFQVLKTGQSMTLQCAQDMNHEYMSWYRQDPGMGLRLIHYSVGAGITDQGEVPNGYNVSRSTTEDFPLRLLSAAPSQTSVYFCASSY

[2] = target: CD33 expressed on cells (MOLM-13, MV411, HL60) (human, UniProt P20138 18-364); experiment: cell binding
[3] = target: T1, TCRvβ 6-5 expressed on cells (TCRvβ …); experiment: FACS cell binding

CD33 expressed on cells (MOLM-13, MV411, HL60), sequence (P20138 18-364): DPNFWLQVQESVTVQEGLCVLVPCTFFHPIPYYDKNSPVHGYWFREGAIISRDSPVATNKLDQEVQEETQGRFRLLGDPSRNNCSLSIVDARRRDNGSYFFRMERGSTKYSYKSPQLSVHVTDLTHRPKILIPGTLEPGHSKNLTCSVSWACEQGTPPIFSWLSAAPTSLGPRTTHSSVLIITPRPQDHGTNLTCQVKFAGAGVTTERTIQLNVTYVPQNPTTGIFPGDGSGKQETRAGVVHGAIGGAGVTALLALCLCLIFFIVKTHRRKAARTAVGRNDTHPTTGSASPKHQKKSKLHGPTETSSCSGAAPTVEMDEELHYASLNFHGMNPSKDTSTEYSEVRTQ

- EC50 [1]: 0.91 nM
- EC50 [2]: 0.13 nM
- EC50 [3]: 0.908 nM
B1: BJM0387 (bispecific antibody)
heavy: QVQLVQSGAEVKKPGSSVKVSCKASGYSFTTYYIHWVRQAPGQGLEWMGWFFPGSGNIKYNEKFKGRVTITADTSTSTAYMELSSLRSEDTAVYYCAGSYYSYDVLDYWGQGTTVTVSSGGGGSGGGGSGGGGSGGGGSDIQMTQSPSFLSASVGDRVTITCKASQNVGINVVWHQQKPGKAPKALIYSSSHRYSGVPSRFSGSGSGTEFTLTISSLQPEDFATYFCQQFKSYPLTFGQGTKLEIKGGGGSQVQLVQSGAEVKKPGSSVKVSCKASGYTFTDYNMHWVRQAPGQGLEWIGYIYPYNGGTGYNQKFKSKATITADESTNTAYMELSSLRSEDTAVYYCARGRPAMDYWGQGTLVTVSS
light: DIQMTQSPSSLSASVGDRVTITCRASESVDNYGISFMNWFQQKPGKAPKLLIYAASNQGSGVPSRFSGSGSGTDFTLTISSLQPDDFATYYCQQSKEVPWTFGQGTKVEIK
